Earlier results in PMC6746776.

Target: p63 TAD TAD (Homo sapiens) (UniProt Q9H3D4)
Sequence (Q9H3D4 1-107): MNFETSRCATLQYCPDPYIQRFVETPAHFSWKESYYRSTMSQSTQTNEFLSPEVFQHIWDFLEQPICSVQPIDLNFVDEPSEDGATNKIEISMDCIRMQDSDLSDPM

Chain of p300 Taz2 (Q09472 1723-1812): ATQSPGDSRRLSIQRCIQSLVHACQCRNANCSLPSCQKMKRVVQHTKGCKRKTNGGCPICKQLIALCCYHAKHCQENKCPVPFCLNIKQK

## p300 Taz2 (from UniProt Q09472)
  Kd: 196 nM
